Measured values from patent US20190352642A1.

Target: complement C1q (in Hamster complement, Abcham Ab155111) (hamster)
Assay: cell-based or functional assay

Substance	complement-induced hemolysis of IgG coupled RBC (OD 540 nm, against 100% hemolysis by Tween-20); 6 nm activated IgG (about 5x10^6 molecules per RBC)	complement-induced hemolysis of IgG coupled RBC; 1.2 nm activated IgG (about 1x10^6 molecules per RBC)	complement-induced hemolysis when about 1-2x10^4 IgG molecules were bound per one RBC (not shown)	complement-induced hemolysis of Fc coupled RBC (OD 540 nm, against 100% hemolysis by Tween-20); 6 nm activated Fc (about 5x10^6 molecules per RBC)	complement-induced hemolysis of Fc coupled RBC; 1.2 nm activated Fc (about 1x10^6 molecules per RBC)
h-IgG (Sigma Aldrich), chemically coupled to human red blood cells (antibody)	90%	30 to 40%	85 to 95%		
h-IgG Fc fragment (Sigma Aldrich), chemically coupled to human red blood cells				80%	30 to 40%
